Drawing on patent US20260159591A1, this text covers MFI for one substance.

Assay [1] addresses murine ITGA11 expressed in CHO cells (murine) (UniProt P61622). Put plainly: flow cytometry, 34 nM antibody on CHO cells expressing murine ITGA11.
In assay [2] the target is human ITGA11 expressed in mouse C2C12 cells (human) (UniProt Q9UKX5). Put plainly: flow cytometry, 34 nM antibody on C2C12 cells expressing human ITGA11.
Chain of human ITGA11 expressed in mouse C2C12 cells (human) (Q9UKX5 23-1188): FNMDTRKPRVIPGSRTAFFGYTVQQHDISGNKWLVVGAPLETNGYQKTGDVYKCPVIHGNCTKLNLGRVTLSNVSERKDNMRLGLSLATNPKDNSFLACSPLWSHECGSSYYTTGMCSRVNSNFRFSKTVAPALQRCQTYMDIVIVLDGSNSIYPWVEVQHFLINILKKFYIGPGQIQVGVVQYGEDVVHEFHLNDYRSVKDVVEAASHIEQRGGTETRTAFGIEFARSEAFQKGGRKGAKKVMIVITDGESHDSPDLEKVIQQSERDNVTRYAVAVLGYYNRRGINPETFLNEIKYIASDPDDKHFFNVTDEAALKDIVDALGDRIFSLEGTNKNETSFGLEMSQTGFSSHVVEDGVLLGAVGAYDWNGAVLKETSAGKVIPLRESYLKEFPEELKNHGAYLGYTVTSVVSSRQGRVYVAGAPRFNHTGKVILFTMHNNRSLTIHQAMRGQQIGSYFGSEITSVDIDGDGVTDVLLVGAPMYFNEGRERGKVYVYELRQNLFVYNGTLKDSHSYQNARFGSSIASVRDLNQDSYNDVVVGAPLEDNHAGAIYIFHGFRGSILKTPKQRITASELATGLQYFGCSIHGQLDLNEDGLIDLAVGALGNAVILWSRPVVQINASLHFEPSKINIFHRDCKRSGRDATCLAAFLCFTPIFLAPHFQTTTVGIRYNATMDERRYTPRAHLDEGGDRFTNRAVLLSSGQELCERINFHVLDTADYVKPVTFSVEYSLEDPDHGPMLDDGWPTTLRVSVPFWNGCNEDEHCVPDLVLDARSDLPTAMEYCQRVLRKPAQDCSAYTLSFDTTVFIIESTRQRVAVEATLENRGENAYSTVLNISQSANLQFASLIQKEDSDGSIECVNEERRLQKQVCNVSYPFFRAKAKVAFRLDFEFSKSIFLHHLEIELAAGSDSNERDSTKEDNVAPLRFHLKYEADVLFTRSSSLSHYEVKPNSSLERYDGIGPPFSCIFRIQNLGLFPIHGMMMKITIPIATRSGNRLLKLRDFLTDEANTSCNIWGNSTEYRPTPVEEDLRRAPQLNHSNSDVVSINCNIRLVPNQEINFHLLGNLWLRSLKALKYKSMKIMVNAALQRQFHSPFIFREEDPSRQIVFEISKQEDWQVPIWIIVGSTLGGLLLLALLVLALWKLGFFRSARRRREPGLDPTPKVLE

Chain of murine ITGA11 expressed in CHO cells (murine) (P61622 23-1188): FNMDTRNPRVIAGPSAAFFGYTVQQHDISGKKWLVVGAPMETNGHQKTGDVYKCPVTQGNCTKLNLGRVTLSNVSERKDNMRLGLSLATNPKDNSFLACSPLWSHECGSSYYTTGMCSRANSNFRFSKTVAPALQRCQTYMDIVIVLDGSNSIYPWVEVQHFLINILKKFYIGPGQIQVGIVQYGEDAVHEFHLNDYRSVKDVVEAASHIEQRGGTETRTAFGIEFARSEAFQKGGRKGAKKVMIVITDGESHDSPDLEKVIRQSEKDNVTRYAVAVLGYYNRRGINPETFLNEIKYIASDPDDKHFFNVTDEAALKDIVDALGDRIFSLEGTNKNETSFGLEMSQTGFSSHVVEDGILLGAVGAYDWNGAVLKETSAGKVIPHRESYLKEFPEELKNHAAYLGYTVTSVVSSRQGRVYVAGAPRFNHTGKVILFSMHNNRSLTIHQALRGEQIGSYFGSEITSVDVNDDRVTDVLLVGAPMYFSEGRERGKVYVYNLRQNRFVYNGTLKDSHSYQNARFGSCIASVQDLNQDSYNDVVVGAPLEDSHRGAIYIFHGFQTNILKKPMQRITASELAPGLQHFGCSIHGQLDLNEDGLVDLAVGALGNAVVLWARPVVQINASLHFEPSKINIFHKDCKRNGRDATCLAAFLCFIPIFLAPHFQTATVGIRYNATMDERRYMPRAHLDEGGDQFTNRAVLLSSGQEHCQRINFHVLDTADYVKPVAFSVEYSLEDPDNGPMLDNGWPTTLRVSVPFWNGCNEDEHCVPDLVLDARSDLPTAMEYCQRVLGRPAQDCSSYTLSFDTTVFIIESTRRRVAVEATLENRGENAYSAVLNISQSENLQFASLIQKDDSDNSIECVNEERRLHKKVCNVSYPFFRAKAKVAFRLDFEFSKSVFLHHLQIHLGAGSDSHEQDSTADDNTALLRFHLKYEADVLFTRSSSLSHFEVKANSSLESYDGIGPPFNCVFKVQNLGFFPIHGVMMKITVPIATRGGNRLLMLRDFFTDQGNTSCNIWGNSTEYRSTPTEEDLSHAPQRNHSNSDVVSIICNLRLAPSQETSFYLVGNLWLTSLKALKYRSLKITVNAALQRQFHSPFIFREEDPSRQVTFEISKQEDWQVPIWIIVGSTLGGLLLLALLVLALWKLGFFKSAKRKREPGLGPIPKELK

Consider Control IgG4 (antibody), for which the MFI in assay [1] was determined as 513 MFI; in assay [2], 557 MFI.
